Consider one molecule from US20050048606A1 (AGENCY FOR SCIENCE TECHNOLOGY AND RESEARCH, published 2005).

The target of the assay is TrkA (rat (endogenous in PC12 rat …, UniProt P35739 33-799)). The assay can be described thus: cell-based or functional assay.
TrkA (rat, sequence (P35739 33-799): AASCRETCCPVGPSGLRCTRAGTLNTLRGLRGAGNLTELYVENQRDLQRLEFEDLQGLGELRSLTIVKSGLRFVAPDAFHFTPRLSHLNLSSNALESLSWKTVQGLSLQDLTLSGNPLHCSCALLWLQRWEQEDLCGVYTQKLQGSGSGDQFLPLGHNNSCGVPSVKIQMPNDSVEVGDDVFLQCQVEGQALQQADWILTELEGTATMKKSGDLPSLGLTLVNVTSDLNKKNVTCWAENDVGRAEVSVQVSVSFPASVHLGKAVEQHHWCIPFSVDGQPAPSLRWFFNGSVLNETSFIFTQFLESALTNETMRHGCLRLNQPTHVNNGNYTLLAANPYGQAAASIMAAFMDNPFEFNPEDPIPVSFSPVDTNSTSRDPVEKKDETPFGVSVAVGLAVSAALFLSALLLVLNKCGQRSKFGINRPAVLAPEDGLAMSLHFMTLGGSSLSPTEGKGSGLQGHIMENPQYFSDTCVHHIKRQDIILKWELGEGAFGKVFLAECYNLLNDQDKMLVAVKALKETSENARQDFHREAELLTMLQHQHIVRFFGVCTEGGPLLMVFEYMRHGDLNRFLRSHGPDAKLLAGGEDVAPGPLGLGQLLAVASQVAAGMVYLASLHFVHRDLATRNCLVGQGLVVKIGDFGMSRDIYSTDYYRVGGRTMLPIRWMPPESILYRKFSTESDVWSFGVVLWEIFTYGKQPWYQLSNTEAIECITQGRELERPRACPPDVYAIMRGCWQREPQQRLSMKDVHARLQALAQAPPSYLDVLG

B1: SPKR4NL1-2 (other)
chain: MGHHHHHHHHHHSSGHIEGRHMSPKRSPKRSPKRSPKRGGTYLSEDELKAAEAAFKRHNPTGSCSVSVWVGDKTTATDIKGKEVMVLGEVNINNSVFKQYFFETKCRDPNPVDSG
modifications: disulfide bridge intended between the added Cys and the Cys corresponding to C58 of NGF
B1: the “increase in gene expression in PC12 cells, SPKR4NL1-2 group against (SPKR)4 group (luciferase)” value was determined as 1400 fold.
